According to EP0765166B1, “RADIOLABELED ANNEXIN-GALACTOSE CONJUGATES” (NEORX CORPORATION, priority 1994, dated 1995):

Conditions: in vivo, iv
Description: • A. Animal Preparation - LA Vascular Thrombi. Fasting 25-30 kg Yorkshire swine were sedated with intramuscular Telazol (5-10 mg/kg) (commercially available from AVECO Co.) and commercially available Atropine (1 mg, Elkins-Sinn, Inc., Cherry Hill, NJ). Surital (200 mg) (commercially available from Abbott Laboratories) anaesthesia was administered intravenously. The animals were intubated and given inhalation anaesthesia of 1.5-2% halothane (commercially available from Abbott Laboratories) and O2 sufficient to obtain a deep level of anesthesia and physiologic arterial blood gases. Continuous electrocardiographic monitoring was instituted using alligator clip electrodes. A cut down in the neck region was conducted, and an 8 french catheter (USCI Co, Billerica, MA) was placed in the right common carotid artery for blood pressure and arterial blood gas monitoring as well as for blood sampling. The swine were placed in a right lateral decubitus position, and a lateral thoracotomy was performed to expose the heart. The incision was held open by a thoracotomy retractor. The pericardium was opened, and the left atrial appendage was isolated from the left atrium by a vascular cross- clamp. Rubber tipped forceps were used to gently crush the appendage. Five minutes later, ricinoleate (1 mg, ICN Pharmaceuticals, Costa Mesa, CA) and thrombin ([…], Johnson and Johnson Co., Arlington, Texas) were injected into the LAA (left atrial appendage) using a 27 Ga needle. The cross-clamp was removed 10 minutes later. One hour after the crush injury, Tc-99m-annexin V, prepared in accordance with Example I above, was administered as an intravenous bolus dose in an ear vein. The intravenous line was then flushed with saline. In 7 animals, I-125 labeled ovalbumin was administered as a non-specific control preparable, for example, by the procedure described by Fraker et al., Biochem. Biophys. Res. Commun. 80: 849-57, 1978). Briefly, I-125-radiolabeled ovalbumin was prepared by the Iodogen method, employing 600 µg ovalbumin (Sigma Chemical Co., St. Louis, Missouri) and NaI-125 (2mCi, 0.92 nmol). Image acquisition was performed as described below. At the end of the experimental procedure (generally about 150 minutes), the animals were sacrificed by an intravenous bolus dose of 80 mEq of KCl while the animals were still under general anaesthetic. A final blood sample was taken for well counting. The heart was rapidly excised, washed free of blood and dissected into samples for well counting. Additional samples of carotid artery, lung, liver, spleen, muscle and kidney were obtained in some animals. • B. Controls. Five different types of controls were used: open chest sham; closed chest sham; ovalbumin; indium platelets; and non-specific Tc-99m-labeled antibody. • 1. Open Chest Sham. […]

Substance: Tc-99m-annexin V: Annexin V radiolabeled with Tc-99m by using a diamide dimercaptide N2S2 chelate (Comparative Example I)
- a: a = 0.0389 %ID/g
- b: b = 0.0300 %ID/g
- t1/2 a: t1/2 a = 9.6 min
- t1/2 b: t1/2 b = 46 min
